Test results from US20070265201A1 (published 2007).
Ends that are not written are not given here.

Experiments:
Test in all cases: GST pull-down, 35S-labeled in vitro translated probe, autoradiography
[1] = target: T1, Cytomegalovirus (CMV) Immediate Early 2 protein (IE2), in vitro translated radiolabeled probe (human Cytomegalovirus (hCMV), UniProt P19893 1-580, labeled with 35S methionine)
T1 sequence: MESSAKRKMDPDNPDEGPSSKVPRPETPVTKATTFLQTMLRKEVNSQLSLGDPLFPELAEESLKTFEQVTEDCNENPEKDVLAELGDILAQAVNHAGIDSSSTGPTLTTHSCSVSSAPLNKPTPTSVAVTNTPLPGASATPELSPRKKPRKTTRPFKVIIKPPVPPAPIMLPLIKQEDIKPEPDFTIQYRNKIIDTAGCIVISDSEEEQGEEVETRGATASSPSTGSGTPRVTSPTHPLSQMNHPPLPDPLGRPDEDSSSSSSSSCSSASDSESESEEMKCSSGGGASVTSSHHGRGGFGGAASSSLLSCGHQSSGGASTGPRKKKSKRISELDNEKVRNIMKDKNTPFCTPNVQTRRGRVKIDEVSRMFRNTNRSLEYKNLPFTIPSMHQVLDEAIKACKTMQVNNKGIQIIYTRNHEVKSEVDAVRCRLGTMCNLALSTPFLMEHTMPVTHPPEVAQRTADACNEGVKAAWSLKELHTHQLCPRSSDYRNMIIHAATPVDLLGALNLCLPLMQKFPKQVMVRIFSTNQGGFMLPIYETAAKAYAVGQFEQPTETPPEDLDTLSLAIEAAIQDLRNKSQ

[2] = target: T2, Spi-1 ETS domain, in vitro translated radiolabeled probe (UniProt P17947 170-253)
T2 construct: domain: ETS domain; also called PU.1 ETS domain

[3] = target: T3, C/EBPβ bZIP domain, in vitro translated radiolabeled probe (UniProt P17676 269-345, labeled with 35S methionine)
T3 construct: range 269-345; Residues 269-345 are stated for the bZIP expression vector in pcDNA3.1; also called bZIP region of NFIL6
T3 sequence (P17676 269-345 limits assumed): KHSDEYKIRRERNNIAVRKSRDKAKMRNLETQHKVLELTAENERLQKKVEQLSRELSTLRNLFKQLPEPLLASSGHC

Measured: binding result

B1: GST fusion of IE2 291-364 fragment with an internal deletion of residues 315-328 (delA) (other)
chain: SSHHGRGGFGGAASSSLLSCGHQSRISELDNEKVRNIMKDKNTPFCTPNVQTRRGRVKID
modifications: cysteine pairing not given here; also: GST fusion, linker and position not given here
notes: also called IE2 291-364Δ315-328; not shown: glutathione-S-transferase (GST) fusion partner
no binding: all assays above
